Test results: paper PMC10076317, “Extended DNA threading through a dual-engine motor module of the activating signal co-integrator 1 complex” (Nature Communications, 2023)
Values belong to the binder of their own block, whether it stands above or below them.

Experiments:
ASCC3HR = ASCC3HR (human, UniProt Q8N3C0 401-2202); assay: MST; no ATP; Hill fit EC50; MST: 20 mM HEPES-NaOH pH 7.5, 300 mM NaCl, 5% glycerol, 1 mM DTT, room temperature, 50 nM final Cy5-T48; UV cross-linking: 50 mM HEPES-NaOH pH 7.5, 80 mM NaCl; details: protein: recombinant; tags: N-terminal His10, TEV-cleaved; label: 5'-Cy5; single strand
TRIP4 = biological target: T1, TRIP4 (UniProt Q15650 1-581); assay: as above; details: protein: recombinant; tags: N-terminal His6, TEV-cleaved; label: 5'-Cy5; single strand
T1 sequence: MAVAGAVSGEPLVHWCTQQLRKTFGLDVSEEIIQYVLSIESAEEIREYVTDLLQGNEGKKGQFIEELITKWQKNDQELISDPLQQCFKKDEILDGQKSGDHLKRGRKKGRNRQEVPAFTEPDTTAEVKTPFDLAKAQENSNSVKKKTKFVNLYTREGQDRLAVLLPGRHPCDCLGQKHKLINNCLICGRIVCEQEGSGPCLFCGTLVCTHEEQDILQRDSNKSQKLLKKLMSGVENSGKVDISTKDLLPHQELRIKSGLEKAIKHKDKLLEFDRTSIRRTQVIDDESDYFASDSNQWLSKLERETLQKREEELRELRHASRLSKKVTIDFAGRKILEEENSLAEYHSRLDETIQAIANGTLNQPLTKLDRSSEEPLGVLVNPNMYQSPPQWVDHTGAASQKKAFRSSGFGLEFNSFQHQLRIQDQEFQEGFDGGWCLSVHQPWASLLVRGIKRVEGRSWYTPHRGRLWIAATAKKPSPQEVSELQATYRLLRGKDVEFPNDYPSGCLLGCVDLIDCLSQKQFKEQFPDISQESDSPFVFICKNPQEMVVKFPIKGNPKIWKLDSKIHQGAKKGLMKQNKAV

ASCC3HR;TRIP4 = ASCC3HR;TRIP4 (human;human?, UniProt Q8N3C0;Q15650 401-2202;1-581, |); assay: as above; details: protein: recombinant;recombinant; tags: N-terminal His10, TEV-cleaved;N-terminal His6, TEV-cleaved; copies: 1;1; label: 5'-Cy5; single strand
ASCC3HR;TRIP4 1-230 = ASCC3HR;TRIP4 1-230 (human;human?, UniProt Q8N3C0;Q15650 401-2202;1-230, |); assay: as above; details: protein: recombinant;recombinant; tags: N-terminal His10, TEV-cleaved;N-terminal His6, TEV-cleaved; copies: 1;1; label: 5'-Cy5; single strand
[1] = biological target: T2, ASCC3 helicase region (ASCC3^HR, residues 401-2202) (human, UniProt Q8N3C0 401-2202); assay: SEC; analytical SEC for competitive binding, Superdex 200 3.2/300; 120 pmol ASCC3^HR with 360 pmol TRIP4 and/or ALKBH3 in 100 µl, 30 min on ice; fractions by SDS-PAGE, Coomassie; details: both partners purified
T2 construct: source: High Five cells via recombinant baculovirus, purified (Ni-NTA, TEV, heparin, SEC); also co-produced with TRIP4 in High Five cells; not shown: His10, N-terminal, cleaved

[2] = biological target: T2, ASCC3 helicase region (ASCC3^HR, …); assay: SEC; analytical SEC, Superdex 200 3.2/300; 20 mM HEPES-NaOH pH 7.5, 250 mM NaCl, 5% glycerol, 1 mM DTT; 100 pmol ASCC3^HR mixed with other proteins in two to tenfold molar excess in 80 µl, 30 min on ice; fractions by SDS-PAGE; details: both partners purified
[3] = biological target: T2, ASCC3 helicase region (ASCC3^HR, …); assay: cell-based or functional assay

T2 sequence (Q8N3C0 401-2202): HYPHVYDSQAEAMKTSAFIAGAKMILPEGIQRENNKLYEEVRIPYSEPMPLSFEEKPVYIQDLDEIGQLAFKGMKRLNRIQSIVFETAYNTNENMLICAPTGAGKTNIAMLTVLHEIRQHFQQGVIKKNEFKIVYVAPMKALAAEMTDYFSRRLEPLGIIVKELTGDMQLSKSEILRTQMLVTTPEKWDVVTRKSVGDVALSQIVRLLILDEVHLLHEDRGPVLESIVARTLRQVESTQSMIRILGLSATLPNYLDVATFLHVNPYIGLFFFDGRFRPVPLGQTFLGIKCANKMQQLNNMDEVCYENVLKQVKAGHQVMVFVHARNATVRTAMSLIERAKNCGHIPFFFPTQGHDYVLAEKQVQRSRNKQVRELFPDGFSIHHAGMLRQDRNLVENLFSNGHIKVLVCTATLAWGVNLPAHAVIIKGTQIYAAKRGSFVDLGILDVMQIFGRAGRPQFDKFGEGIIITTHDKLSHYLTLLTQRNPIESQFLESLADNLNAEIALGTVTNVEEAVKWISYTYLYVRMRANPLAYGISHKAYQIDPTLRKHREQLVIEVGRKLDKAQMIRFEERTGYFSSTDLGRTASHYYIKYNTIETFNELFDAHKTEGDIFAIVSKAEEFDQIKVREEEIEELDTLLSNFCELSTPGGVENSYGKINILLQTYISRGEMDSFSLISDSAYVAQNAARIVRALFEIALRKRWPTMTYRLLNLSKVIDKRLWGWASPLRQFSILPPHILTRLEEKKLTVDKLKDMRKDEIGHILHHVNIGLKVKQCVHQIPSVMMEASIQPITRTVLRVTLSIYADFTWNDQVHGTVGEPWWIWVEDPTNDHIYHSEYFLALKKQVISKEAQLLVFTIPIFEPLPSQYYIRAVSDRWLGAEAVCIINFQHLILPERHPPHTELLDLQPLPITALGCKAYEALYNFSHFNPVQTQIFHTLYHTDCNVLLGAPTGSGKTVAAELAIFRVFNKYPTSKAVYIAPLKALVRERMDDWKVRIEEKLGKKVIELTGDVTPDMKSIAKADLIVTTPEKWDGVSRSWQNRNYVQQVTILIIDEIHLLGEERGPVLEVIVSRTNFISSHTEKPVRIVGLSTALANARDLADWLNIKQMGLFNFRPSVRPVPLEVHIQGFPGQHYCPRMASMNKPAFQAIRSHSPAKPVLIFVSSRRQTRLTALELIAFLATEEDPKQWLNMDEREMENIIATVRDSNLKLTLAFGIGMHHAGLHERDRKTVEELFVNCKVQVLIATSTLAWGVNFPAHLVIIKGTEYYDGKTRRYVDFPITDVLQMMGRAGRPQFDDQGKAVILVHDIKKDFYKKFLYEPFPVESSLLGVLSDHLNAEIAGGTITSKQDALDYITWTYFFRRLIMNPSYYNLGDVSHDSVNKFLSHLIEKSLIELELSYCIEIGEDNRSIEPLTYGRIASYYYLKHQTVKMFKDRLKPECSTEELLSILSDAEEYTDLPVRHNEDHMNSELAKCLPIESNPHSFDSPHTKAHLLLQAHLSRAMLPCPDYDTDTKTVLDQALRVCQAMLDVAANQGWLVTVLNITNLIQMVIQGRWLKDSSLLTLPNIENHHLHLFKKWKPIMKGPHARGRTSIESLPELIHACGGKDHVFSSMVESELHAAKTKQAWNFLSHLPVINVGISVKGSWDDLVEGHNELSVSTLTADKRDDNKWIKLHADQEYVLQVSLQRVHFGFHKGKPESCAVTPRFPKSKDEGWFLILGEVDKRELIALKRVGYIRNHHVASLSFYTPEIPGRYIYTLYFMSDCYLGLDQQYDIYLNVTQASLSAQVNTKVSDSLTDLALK
Sequence of ASCC3HR;TRIP4 1-230 (Q8N3C0 401-2202, one chain of several): as the sequence (Q8N3C0 401-2202) above
Sequence of ASCC3HR;TRIP4 (Q8N3C0 401-2202, one chain of several): as the sequence (Q8N3C0 401-2202) above
Sequence of ASCC3HR (Q8N3C0 401-2202): as above

Binder: TTTTTTTTTTTTTTTTTTTTTTTTTTTTTTTTTTTTTTTTTTTTTTTT (ssDNA) [T48 (Cy5)]
apparent K (half saturation) (ASCC3HR): 551 ± 194 nM | apparent K (half saturation) (TRIP4): 903 ± 24 nM | apparent K (half saturation) (ASCC3HR;TRIP4): 53 ± 3 nM | apparent K (half saturation) (ASCC3HR;TRIP4 1-230): 468 ± 63 nM

B4: TRIP4, full length, co-produced with ASCC3^HR in insect cells (natural protein, human, UniProt Q15650 1-581, looked up)
chain: T1 sequence
amplitude-weighted DNA unwinding rate constant (kuaw) of ASCC3^HR with TRIP4, stopped-flow fluorescence, no trap (ASCC3^HR alone 0.024 s^-1; stimulated 2.3-fold) [3]: 0.054 s⁻¹

More lines, now with the values ahead:

binding result [1]: binds
B1: ALKBH3 (alpha-ketoglutarate/iron-dependent dioxygenase, DNA/RNA dealkylase), full length (enzyme, human, UniProt Q96Q83 1-286, looked up)
chain: MEEKRRRARVQGAWAAPVKSQAIAQPATTAKSHLHQKPGQTWKNKEHHLSDREFVFKEPQQVVRRAPEPRVIDREGVYEISLSPTGVSRVCLYPGFVDVKEADWILEQLCQDVPWKQRTGIREDITYQQPRLTAWYGELPYTYSRITMEPNPHWHPVLRTLKNRIEENTGHTFNSLLCNLYRNEKDSVDWHSDDEPSLGRCPIIASLSFGATRTFEMRKKPPPEENGDYTYVERVKIPLDHGTLLIMEGATQADWQHRVPKEYHSREPRVNLTFRTVYPDPRGAPW
notes: ALKBH3, human, full length, amplified from a cDNA library of human HeLa cells, pETM-11; source: E. coli C2566, purified (Ni-NTA, TEV, heparin, SEC); not shown: His6, N-terminal, cleaved

binding result [2]: binds
B2: TRIP4^152-230 (domain or fragment, human, UniProt Q15650 152-230, looked up)
chain: LYTREGQDRLAVLLPGRHPCDCLGQKHKLINNCLICGRIVCEQEGSGPCLFCGTLVCTHEEQDILQRDSNKSQKLLKKL
notes: TRIP4, human, residues 152-230 (ZnF domain); also called ZnF domain alone; source: E. coli BL21 (DE3), purified (Ni-NTA, TEV, SEC); not shown: His6, N-terminal, cleaved

binding result [2]: binds
B3: TRIP4^152-581 (domain or fragment, human, UniProt Q15650 152-581, looked up)
chain: LYTREGQDRLAVLLPGRHPCDCLGQKHKLINNCLICGRIVCEQEGSGPCLFCGTLVCTHEEQDILQRDSNKSQKLLKKLMSGVENSGKVDISTKDLLPHQELRIKSGLEKAIKHKDKLLEFDRTSIRRTQVIDDESDYFASDSNQWLSKLERETLQKREEELRELRHASRLSKKVTIDFAGRKILEEENSLAEYHSRLDETIQAIANGTLNQPLTKLDRSSEEPLGVLVNPNMYQSPPQWVDHTGAASQKKAFRSSGFGLEFNSFQHQLRIQDQEFQEGFDGGWCLSVHQPWASLLVRGIKRVEGRSWYTPHRGRLWIAATAKKPSPQEVSELQATYRLLRGKDVEFPNDYPSGCLLGCVDLIDCLSQKQFKEQFPDISQESDSPFVFICKNPQEMVVKFPIKGNPKIWKLDSKIHQGAKKGLMKQNKAV
notes: source: E. coli BL21 (DE3), purified (Ni-NTA, TEV, heparin, SEC); not shown: His6, N-terminal, cleaved
